The results in this text go back to article PMC12369401, “A β‐1,2‐glucan‐associated glycoside hydrolase family 1 β‐glucosidase from Streptomyces griseus” (Protein Science : A Publication of the Protein Society, 2025).

The target of data set [1] is T1, SGR_2426r (SGR_2426 protein) (Streptomyces griseus, UniProt B1W1N0, E318G).
T1 construct: full length (no signal peptide), C-terminal His6 tag kept, pET30a, E. coli BL21(DE3); monomer by PISA
Put plainly: X-ray crystal structure, soaked crystal. The class given is binding. The settings on record: 500 mM Sop2 soak, about 2 h; subsites -1 and +1; mutant printed E316G once.

Substrate in data set [2]: O=[N+]([O-])c1ccc(O[C@@H]2O[C@H](CO)[C@@H](O)[C@H](O)[C@H]2O)cc1
Put plainly: purified protein. The conditions noted are these: pH 6.5.

Substrate in data set [3]: O=[N+]([O-])c1ccc(O[C@@H]2O[C@H](CO)[C@H](O)[C@H](O)[C@H]2O)cc1
The data set is described as follows: purified protein. The settings on record: pH 6.5.

Substrate in data set [4]: C[C@H]1O[C@@H](Oc2ccc([N+](=O)[O-])cc2)[C@H](O)[C@@H](O)[C@H]1O
The data set is described as follows: p-nitrophenol release, biphasic fit. The class given is biochemical, Streptomyces griseus. The conditions noted are these: pH 6.5, first (stronger) site of biphasic equation. An excerpt: p-nitrophenol release, biphasic fit on SGR_2426r (SGR_2426 protein)

T1 sequence (B1W1N0 entry or part of it E318G): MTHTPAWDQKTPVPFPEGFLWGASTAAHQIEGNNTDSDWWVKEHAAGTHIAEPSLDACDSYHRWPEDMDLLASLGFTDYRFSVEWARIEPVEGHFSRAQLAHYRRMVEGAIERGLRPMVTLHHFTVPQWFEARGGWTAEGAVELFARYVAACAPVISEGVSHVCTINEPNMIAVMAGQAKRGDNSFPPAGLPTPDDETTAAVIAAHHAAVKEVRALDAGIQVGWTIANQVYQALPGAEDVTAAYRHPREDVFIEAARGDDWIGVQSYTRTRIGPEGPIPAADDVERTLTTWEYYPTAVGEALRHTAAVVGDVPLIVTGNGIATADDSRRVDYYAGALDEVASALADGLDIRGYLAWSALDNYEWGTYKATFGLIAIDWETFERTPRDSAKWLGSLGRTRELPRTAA

For `OC[C@H]1O[C@@H](O[C@H]2C(O)O[C@H](CO)[C@@H](O)[C@@H]2O)[C@H](O)[C@@H](O)[C@@H]1O` (stereo partly shown) [Sop2, sophorose], the “X-ray crystal structure, soaked crystal” value in data set [1] was “crystals of the E318G mutant prepared without Sop2 were soaked”.

B1: SGR_2426r (SGR_2426 protein) (Streptomyces griseus subsp. griseus NBRC 13350) (protein)
chain: MTHTPAWDQKTPVPFPEGFLWGASTAAHQIEGNNTDSDWWVKEHAAGTHIAEPSLDACDSYHRWPEDMDLLASLGFTDYRFSVEWARIEPVEGHFSRAQLAHYRRMVEGAIERGLRPMVTLHHFTVPQWFEARGGWTAEGAVELFARYVAACAPVISEGVSHVCTINEPNMIAVMAGQAKRGDNSFPPAGLPTPDDETTAAVIAAHHAAVKEVRALDAGIQVGWTIANQVYQALPGAEDVTAAYRHPREDVFIEAARGDDWIGVQSYTRTRIGPEGPIPAADDVERTLTTWEYYPTAVGEALRHTAAVVGDVPLIVTENGIATADDSRRVDYYAGALDEVASALADGLDIRGYLAWSALDNYEWGTYKATFGLIAIDWETFERTPRDSAKWLGSLGRTRELPRTAA
notes: full length (no signal peptide), C-terminal His6 tag kept, pET30a, E. coli BL21(DE3); monomer by PISA
Consider B1, for which the Michaelis constant (Km) turned out to be 1000 ± 100 µM in “purified protein [2]”, 5800 ± 300 µM in the data set “purified protein [3]” and 160 ± 100 µM in data set [4]. Moreover, the maximum rate (Vmax) is 28 µmol/min/mg in the data set “purified protein [2]”, 13 µmol/min/mg in “purified protein [3]” and 4.6 µmol/min/mg in data set [4]. Moreover, the Vmax/Km in “purified protein [2]” turned out to be 28000 µL/min/mg; in the data set “purified protein [3]” it was 2300 µL/min/mg; in data set [4], 29000 µL/min/mg.

A word on the Km: it is the substrate concentration at which the rate is half of its maximum. The Vmax is the top rate of the reaction or transport when substrate is in excess.
